Results taken from the supplement of paper PMC6757056.
± gives the standard deviation of the averaged measurements.

B1: library; a variant is named by its letters at N, in order (parent)
chain: GCUGUCACCGGUGCUUGGUACGUUAUAUUCAGCCGGUCUGAUGAGUCUNNNNNNAGACGAAACAGC

Legend:
(6R,S)-folinic acid [1] = variants of: B1; assay: normalized RNA/DNA level without ligand (relative to sTRSVctl = 100) (log10 (% of sTRSVctl)); HEK293T overexpressing SLC46A1; higher = less ribozyme self-cleavage, higher mRNA level; settings: without (6R,S)-folinic acid; ligand present: no
How it was run: (§1)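 Library plasmids carrying ribozyme switches linked to mCherry, or to eGFP in some ligand experiments, were transfected into HEK293T at 4 µg per 6-well well, with any ligand added 1 h earlier. Seventy-two hours on, total RNA was extracted with EDTA and reverse-transcribed, amplified, barcoded and sequenced. RNA level was RNA over DNA reads normalized to a spiked-in non-cleaving sequence or to the top sequences, then scaled and log-transformed. The top set was 25 sequences, the transform was ×100 and log10, and sequences needed ≥100 DNA reads.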

(6R,S)-folinic acid [2] = variants of: B1; assay: normalized RNA/DNA level with ligand (relative to sTRSVctl = 100) (log10 (% of sTRSVctl)); HEK293T overexpressing SLC46A1; ligand concentration (+) RNA-Seq: 6 mM; higher = less ribozyme self-cleavage, higher mRNA level; settings: with (6R,S)-folinic acid; ligand present: yes
How it was run: as §1

Row | Variant | normalized RNA/DNA level without ligand (log10) ((6R,S)-folinic acid [1]) | normalized RNA/DNA level with ligand (log10) ((6R,S)-folinic acid [2])
1 | GAUUGC | 1.974 ± 0.015 | 2 ± 0.036
2 | AAUUGC | 2.006 ± 0.0074 | 2.01 ± 0.039
3 | UAUUGC | 1.941 ± 0.011 | 1.96 ± 0.034
4 | CAUUGG | 1.955 ± 0.011 | 2.01 ± 0.026
5 | GAUUGG | 1.973 ± 0.017 | 2.028 ± 0.019
6 | CAUUGU | 2.012 ± 0.0069 | 2.02 ± 0.064
7 | UAUUGU | 1.888 ± 0.012 | 2.005 ± 0.017
8 | CAUUUA | 1.97 ± 0.013 | 1.999 ± 0.013
9 | AAUUUA | 1.966 ± 0.012 | 1.99 ± 0.02
10 | UAUUUA | 1.98 ± 0.024 | 2.01 ± 0.021
11 | CAUUUC | 2.036 ± 0.0064 | 2 ± 0.037
12 | GAUUUC | 2.055 ± 0.017 | 2 ± 0.03
13 | AAUUUC | 2.031 ± 0.0025 | 2.01 ± 0.049
14 | GAUUUG | 1.95 ± 0.023 | 2.03 ± 0.047
15 | GAUUUU | 2.011 ± 0.0062 | 2.026 ± 0.0072
16 | ACAAAA | 1.97 ± 0.0049 | 1.99 ± 0.033
17 | CCAAAC | 2.017 ± 0.015 | 2.03 ± 0.044
18 | GCAAAC | 1.974 ± 0.0046 | 2.02 ± 0.023
19 | CCAAAG | 1.899 ± 0.0025 | 1.99 ± 0.025

Row | Variant | normalized RNA/DNA level without ligand (log10) ((6R,S)-folinic acid [1]) | normalized RNA/DNA level with ligand (log10) ((6R,S)-folinic acid [2])
20 | GCAAAG | 1.95 ± 0.0068 | 2.018 ± 0.012
21 | UCAAAG | 1.817 ± 0.0038 | 1.98 ± 0.032
22 | CCAAAU | 1.963 ± 0.013 | 2 ± 0.035
23 | GCAAAU | 2 ± 0.022 | 2.03 ± 0.03
24 | ACAAAU | 1.952 ± 0.015 | 2.01 ± 0.053
25 | UCAAAU | 1.96 ± 0.017 | 2.004 ± 0.017
26 | CCAACA | 2.033 ± 0.011 | 2 ± 0.047
27 | GCAACA | 2.058 ± 0.0047 | 2.05 ± 0.038
28 | UCAACA | 1.987 ± 0.0049 | 2.017 ± 0.018
29 | CCAACC | 2.027 ± 0.016 | 1.99 ± 0.042
30 | GCAACC | 2.033 ± 0.0054 | 2.019 ± 0.019
31 | ACAACC | 2.035 ± 0.0087 | 2.03 ± 0.025
32 | CCAACG | 2.0184 ± 0.002 | 2.01 ± 0.041
33 | GCAACG | 1.982 ± 0.0082 | 2.014 ± 0.02
34 | ACAACG | 1.991 ± 0.019 | 2.06 ± 0.021
35 | UCAACG | 1.909 ± 0.0028 | 2 ± 0.034
36 | CCAACU | 2.049 ± 0.0064 | 2.053 ± 0.02
37 | ACAACU | 2.014 ± 0.0094 | 2.03 ± 0.045
38 | CCAAGA | 2.0052 ± 0.00077 | 2.038 ± 0.0056

Row | Variant | normalized RNA/DNA level without ligand (log10) ((6R,S)-folinic acid [1]) | normalized RNA/DNA level with ligand (log10) ((6R,S)-folinic acid [2])
39 | ACAAGA | 1.974 ± 0.0046 | 2.02 ± 0.031
40 | CCAAGC | 2.098 ± 0.0093 | 2.0623 ± 0.001
41 | GCAAGC | 2.011 ± 0.0087 | 2.023 ± 0.014
42 | ACAAGC | 2.033 ± 0.01 | 2.02 ± 0.04
43 | CCAAGG | 2 ± 0.0033 | 1.991 ± 0.014
44 | UCAAGG | 1.96 ± 0.023 | 2 ± 0.033
45 | GCAAGU | 2.009 ± 0.012 | 2.023 ± 0.02
46 | ACAAGU | 2.022 ± 0.0081 | 2.02 ± 0.028
47 | UCAAGU | 1.984 ± 0.0097 | 2.02 ± 0.045
48 | CCAAUA | 1.994 ± 0.0075 | 2 ± 0.036
49 | GCAAUA | 2.014 ± 0.013 | 2.03 ± 0.026
50 | UCAAUA | 1.9534 ± 0.0012 | 1.98 ± 0.031
51 | CCAAUC | 2.028 ± 0.018 | 1.99 ± 0.049
52 | GCAAUC | 2.03 ± 0.02 | 2.03 ± 0.038
53 | ACAAUC | 2.043 ± 0.01 | 2.03 ± 0.031
54 | UCAAUC | 2.074 ± 0.0092 | 2.06 ± 0.048
55 | CCAAUG | 1.998 ± 0.0065 | 2.022 ± 0.019
56 | GCAAUG | 1.98 ± 0.0061 | 2.033 ± 0.0084
57 | CCAAUU | 2.039 ± 0.0021 | 2.05 ± 0.037
